The results in this text go back to PMC8962522, “Direct interaction of TrkA/CD44v3 is essential for NGF-promoted aggressiveness of breast cancer cells” (Journal of Experimental & Clinical Cancer Research : CR, 2022).

The assay deals with T1, TrkA-His tagged extracellular domain protein (Ala 34-Gly423) (UniProt P04629 34-423, RED-Tris-NTA dye on the His tag (Monolith His-Tag Labeling Kit)).
T1 construct: TrkA (tropomyosin kinase A) extracellular domain, Ala34-Gly423; The TrkA used for nanoDSF is not described; source: bought: R&D Systems (9966-TK-050)
T1 sequence (P04629 34-423): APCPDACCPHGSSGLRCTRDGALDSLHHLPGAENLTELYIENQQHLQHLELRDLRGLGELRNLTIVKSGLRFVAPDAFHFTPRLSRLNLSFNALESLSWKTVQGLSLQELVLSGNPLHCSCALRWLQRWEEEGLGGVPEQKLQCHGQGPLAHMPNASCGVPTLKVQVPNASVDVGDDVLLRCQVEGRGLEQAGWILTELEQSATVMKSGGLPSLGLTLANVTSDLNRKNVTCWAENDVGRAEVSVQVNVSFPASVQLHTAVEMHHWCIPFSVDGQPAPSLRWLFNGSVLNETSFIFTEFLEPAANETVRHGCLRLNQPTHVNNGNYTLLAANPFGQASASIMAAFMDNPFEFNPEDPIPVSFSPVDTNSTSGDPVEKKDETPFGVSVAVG
Description: MST; binding check: peptides and TrkA-His labelled with RED-Tris-NTA; PBS-T; high MST power, 100% LED. Particulars: both partners purified.

B1: CD44v3 mimetic peptide 3 (peptide)
peptide: RDRHLSFSGSG
notes: zone 3 of CD44 variant exon v3; not glycosylated; numbers count on: exon v3; also called P3; source: synthetic peptide
For B1, the binding result is given as “binds”.

B2: CD44v3 mimetic peptide 4 (peptide)
peptide: IDDDEDFISST
notes: zone 4, the C-terminal region of CD44 variant exon v3; numbers count on: exon v3 (D34, F38 as printed); also called P4; CD44v3 C-terminal-mimicking peptide; source: synthetic peptide
In the case of B2, the binding result is given as “binds”.
